The target in this assay is MERS-CoV receptor binding domain (RBD), biotinylated (MERS-CoV) (UniProt K9N5Q8). Put plainly: BLI; […] (10 µg/mL) […] (SA) biosensor for 300 s; analyte in kinetic buffer (PBST, 0.1% BSA) […], association 120 s, dissociation 180 s; […].

By Kd is commonly meant the free concentration of one partner at which half of the binding sites on the other are occupied at equilibrium, for simple one-to-one binding. High values mean weaker binding, low ones tighter binding. alpaca DPP4 (receptor) had a Kd of 58.4 nM.

Regarding rhesus monkey DPP4 (receptor), the Kd came to 47.8 nM.

Values taken from paper PMC12173559.
